Experimental findings from paper doi:10.1101/2020.05.08.085126 are described below.

Data set [1] deals with T1, His-MBP-STF-HD (Medicago truncatula, UniProt G0ZGT3 85-190).
T1 sequence: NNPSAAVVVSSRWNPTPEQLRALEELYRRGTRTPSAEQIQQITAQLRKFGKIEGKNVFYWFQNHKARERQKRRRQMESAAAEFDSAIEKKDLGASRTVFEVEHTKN
Briefly: EMSA.

In data set [2] the target is T1, His-MBP-STF-HD. Briefly: EMSA. This is another data set of the same source. Background: Mobility shift assays separate free from complexed probe on a gel.

Where two headings read alike, the source gives them in different places.

B1: MtLOB38 promoter P1 (dsDNA)
DNA 1: AAAAAAAAATTATATATTAATAGTAATAAATAATAAAAAATAAT
DNA 2: ATTATTTTTTATTATTTATTACTATTAATATATAATTTTTTTTT
With B1, the binding result in data set [1] is reported as “binds”.

B2: MtLOB39 promoter P3 (dsDNA)
DNA 1: CTTTCAATTATACATTTTAATTAATATTAATTT
DNA 2: AAATTAATATTAATTAAAATGTATAATTGAAAG
On to B2, for which the binding result in data set [2] is reported as “binds”.

B3: MtLOB38 promoter P2 (dsDNA)
DNA 1: TCAAATTTCAAATAGAATAAATTTGAAAGTGATAAATGATTAATTATTTT
DNA 2: AAAATAATTAATCATTTATCACTTTCAAATTTATTCTATTTGAAATTTGA
Regarding B3, the binding result in data set [1] is “binds”.

B4: MtLOB39 promoter P1 (dsDNA)
DNA 1: GACCAATCAATGTTGAAAATGTAGAATATT
DNA 2: AATATTCTACATTTTCAACATTGATTGGTC
As for B4, the binding result in data set [2] is on record as “binds”.

B5: MtLOB39 promoter P2 (dsDNA)
DNA 1: TATTCAAATTAATGATTTATTCAATTTT
DNA 2: AAAATTGAATAAATCATTAATTTGAATA
In the case of B5, the binding result in data set [2] is reported as “binds”.
